In series [1] the target is T1, His-ArgP (Escherichia coli (ASKA collection)) (UniProt P0A8S1).
T1 sequence: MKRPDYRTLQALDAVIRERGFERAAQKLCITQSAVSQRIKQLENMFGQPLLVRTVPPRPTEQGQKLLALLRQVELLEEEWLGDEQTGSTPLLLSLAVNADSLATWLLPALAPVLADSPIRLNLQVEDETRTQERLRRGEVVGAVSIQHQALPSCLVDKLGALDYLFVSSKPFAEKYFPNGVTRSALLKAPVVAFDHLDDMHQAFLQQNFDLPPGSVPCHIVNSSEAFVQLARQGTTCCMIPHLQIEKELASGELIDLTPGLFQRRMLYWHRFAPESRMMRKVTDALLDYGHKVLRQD
As to the kind of experiment: EMSA. The conditions noted are these: Radioactive EMSA: 20 min at 30 C, 6% polyacrylamide gel, buffer by reference (Müller et al.); ArgP agarose EMSA: 10 mM Tris-HCl pH 8.5, 10 mM MgCl2, 100 mM …. A general note: A gel shift assay detects complexes by their altered migration in electrophoresis.

Series [2] has as its target T2, LsrB-His (Agrobacterium tumefaciens) (UniProt A9CI74).
T2 sequence: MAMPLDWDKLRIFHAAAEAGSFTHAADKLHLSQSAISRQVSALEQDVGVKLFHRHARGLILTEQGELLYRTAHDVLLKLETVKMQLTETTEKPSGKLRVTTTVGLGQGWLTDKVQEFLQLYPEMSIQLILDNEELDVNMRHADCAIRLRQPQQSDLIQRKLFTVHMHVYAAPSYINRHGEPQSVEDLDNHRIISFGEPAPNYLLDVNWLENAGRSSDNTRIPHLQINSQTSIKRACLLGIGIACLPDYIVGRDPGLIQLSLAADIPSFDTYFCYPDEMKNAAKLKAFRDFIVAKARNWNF
As to the kind of experiment: EMSA. The conditions noted are these: Radioactive EMSA: 20 min at 30 C, 6% polyacrylamide gel, buffer by reference (Müller et al.); ArgP agarose EMSA: 10 mM Tris-HCl pH 8.5, 10 mM MgCl2, 100 mM ….

Series [3] concerns the molecule itself. Nature of the series: cryo-EM structure; single-particle cryo-EM of purified LsrB (1.2 mg/ml), without DNA; DNA-binding domain excluded from the analysis; AlphaFold 3 model of the SBD dimer rigid-body fitted into the 3.9 Å map.

“CGCTTCTGTGGTTTTAGTTTCGGAAACCATACAAAAATGCTATCCATCTTAAAAATGAGGCGCGATTGTAGCAGACGATTGGCAATCCTTCCGGCAGAAATACACGGTTATAAGACACCTTCATGATCGCCCAGGGATTATAAGTAAAGCAGCCAATCTCTTTTCTGGCGAATGCATGCTGAAGGCGCTGCGTCACGAAATCGACACAGCACCAGCATGTTCTTGTACAGCAACTTAACGCGGCACATTTGCGGGATCGCAATAGTCCAGAAAGCG (double strand) [lysP promoter 276 bp]”: the binding result in series [1] is listed as “binds”.

For “GCGGCTAAACGTCTTTTCGCTGGGGATGGCGGAGAAGCCGACAATCCACCTTAGGTTTTGGAGAACACGAAAGATGAAATTTAATCGCAGACATATCGCACTGGCCGCTTTGGTCTCGACGGGCCTGGTCACGCAGGCTTCTGCCGCTGATGATG (double strand) [ampC promoter 155 bp]”, the binding result in series [2] is “no binding”.

B1: LsrB (LysR-type symbiosis regulator B) of Agrobacterium tumefaciens (natural protein)
chain: MAMPLDWDKLRIFHAAAEAGSFTHAADKLHLSQSAISRQVSALEQDVGVKLFHRHARGLILTEQGELLYRTAHDVLLKLETVKMQLTETTEKPSGKLRVTTTVGLGQGWLTDKVQEFLQLYPEMSIQLILDNEELDVNMRHADCAIRLRQPQQSDLIQRKLFTVHMHVYAAPSYINRHGEPQSVEDLDNHRIISFGEPAPNYLLDVNWLENAGRSSDNTRIPHLQINSQTSIKRACLLGIGIACLPDYIVGRDPGLIQLSLAADIPSFDTYFCYPDEMKNAAKLKAFRDFIVAKARNWNF
notes: LsrB, LysR-type transcriptional regulator of Agrobacterium tumefaciens (atu2186); also called Atu2186; LsrB^His; source: E. coli BL21 (DE3), purified (His-tagged or Strep-tagged; Strep-Tactin resin for the Strep-tagged form)
With B1, in series [3], the “stoichiometry N” value is 2.

A word on the stoichiometry N: it is a count of units in the complex or per binding partner.

For the origin of these results see paper PMC11975290, “Two redox-responsive LysR-type transcription factors control the oxidative stress response of Agrobacterium tumefaciens” (Nucleic Acids Research, 2025).
